Assay results taken from publication PMC4020902.

Target: human USP11 N-terminal DUSP-UBL (DU) domains, residues 24-244 (human)
Assay: SEC; gel filtration of hUSP11DU at concentrations associated with crystallization

A fraction of dimer of 5% was found for “human USP11 N-terminal DUSP-UBL (DU) domains, residues 24-244 (domain or fragment)” in this work.
